Data reported in the RNAGym collection of RNA variant scans (doi:10.7554/elife.90254).

B1: LINE1-full (parent)
chain: UACGUAGGUGGUUUUCCCCUGAUAGUGCUAAGGGGGCCUGGAAGUUUGGACUGGGCAGAGCUCAACACAGCGUGGCAAAGUGGCUGUGGCUAGACUGCCUCUCUGGAUUCCUCGUCACUCAGCAGGGCAUCUCUGAGAGAAAUGCC

Variants of: B1
Experiment: self-cleavage, relative activity (ratio to wild type); higher = more cleavage; in vitro, sequencing; the parent is a self-cleaving ribozyme

Variant | self-cleavage
A57G C120A | 0.93
G55U U102C | 0.06
G53U U73C | 1.22
A57C A67U | 0.14
G54A A94G | 0.15
G58U A59G | 0.06
G53A U112C | 1.25
A57U G83U | 0.02
G58A A107G | 0.04
G54A A140G | 0.73
G54U A64G | 0.21
G58A A79G | 0.06
G58A U96C | 0.04
A57G A121U | 1
G54A A117C | 1.1
G54A A117U | 1.1
U52G U112C | 0.99
U52G U112A | 0.56
A57G G127A | 0.94
A57G G114A | 0.84
A57C A78G | 0
A57G U108C | 1.48
A57G A129C | 1.33
C56U U119C | 0.21

Variant | self-cleavage
A59C U115C | 1.55
G53C U81C | 1.34
A57U U130A | 0.15
A57U U130C | 0.13
G55C U87C | 0.37
A57U A64G | 0.1
G53A U73G | 1.05
G53A U73A | 1.88
A57U U91A | 0.07
A57U U91C | 0.04
A57U A78G | 0.03
A57C U91C | 0
G54A U73C | 0.67
A57U A138G | 0.15
G58U U115C | 0.04
G55A A142G | 0.27
A57G A92U | 0.3
A57G A92G | 0.14
G58A A59G | 0
A57C G97U | 0.04
G55A U96C | 0.04
G55A U96A | 0.05
C56A U96A | 0.03
A57U U87C | 0.04

Variant | self-cleavage
A57U U87A | 0.05
G58U A141G | 0.04
C56A A124G | 0.03
A57G U100C | 1.99
A57G A77U | 0.58
A57G A77G | 1.68
G54U G82A | 1.26
A57G U132A | 1.29
A57G U132G | 0.62
A57G U132C | 0.86
A57C A107U | 0.07
G54U A117G | 0.52
G53C A64G | 0.22
G58U A129G | 0.05
G58A U130C | 0.05
A59C U108C | 1.28
A57G U87A | 0.08
G53U U91C | 0.54
A57U U96A | 0.52
A57U U96C | 0.06
A57U U96G | 0.22
C56G A129C | 0.08
G55U C133A | 0.26
G55C A65G | 0.06

Variant | self-cleavage
A57C G127A | 0.03
G53A G88A | 0.07
G54A U104C | 0.44
G54A U104A | 0.18
A57G A64U | 0.3
A57G A64G | 0.3
G54A A69C | 0.04
G55C G72A | 0.08
G55A U73A | 0.12
C56U A92G | 0.06
A57C U81C | 0.04
A57C U81G | 0.16
U52G U109A | 2.14
G53A U62C | 0.05
G53A U85C | 0.2
G53A U85A | 0.14
A57G U104A | 0.3
C56U A129U | 0.23
G54A A142G | 0.83
C56A U130G | 0.03
C56U A65G | 0.03
A57G U73G | 0.69
A57G U73C | 1.17
G58U A117G | 0.01

Variant | self-cleavage
A57G A140G | 0.91
C56A C120U | 0.17
A57U U102C | 0.13
G53A A141G | 1.26
A57G A59G | 0.62
G58A C110U | 0.05
A57G U119A | 0.85
C56A U134C | 0.07
G54A U119A | 0.55
C56U A117G | 0.18
A57G C61U | 0.05
A57U A59U | 0.07
G54A A79G | 0.4
A59C U130C | 0.8
A59G A67G | 0.08
A57U A67C | 0.07
A57U A67G | 0.12
C56U U85C | 0.07
C56U U85G | 0.03
G58U A65U | 0.04
G54A A121U | 0.85
G53A U130A | 1.21
G55A C131G | 0.35
A57G A67G | 0.28

Variant | self-cleavage
A57G G106U | 0.58
A57U U109C | 0.03
A57U A65U | 0.06
U52G U108C | 1.94
G55U C113U | 0.07
C56U U132C | 0.2
C56U U73A | 0.08
C56U U73C | 0.25
A57U A129U | 0.11
A57C U112C | 0.08
G55A U115A | 0.21
G55A U115C | 0.63
A57U A136G | 0.11
G55C | 0.08
G55A | 0.19
G55U | 0.19
C56U U96A | 0.03
C56U U109C | 0.03
A57U A79U | 0.1
A57U A79G | 0.06
A57U A77G | 0.17
G58A A138G | 0.04
A57U U134G | 0.02
A57U U134C | 0.12

Variant | self-cleavage
A57C C131A | 0.08
G54A A57C | 0.07
G53A U108A | 0.14
A57U A94G | 0.14
A57U A94U | 0.04
G55U A142G | 0.11
G54A A107G | 0.47
G54A G72A | 0.45
A57U G144U | 0.3
G55C A57U | 0.02
G58A A129G | 0.03
G58A A129U | 0.06
A57U U115A | 0.09
G54U A129G | 1.02
C56A G106A | 0.08
G55A U102C | 0.17
A57U C128U | 0.11
A57G A69G | 0.21
A57U A92U | 0.07
A57U A92G | 0.07
G53A A59G | 0.06
A57G G86A | 0.05
C56U G74A | 0.09
A57G U112A | 0.99

Variant | self-cleavage
G55C A67G | 0.05
C56U A78U | 0.15
C56U A78G | 0.06
G53U A69U | 0.01
G55A A141G | 0.11
G53A A117G | 2.04
G54A U85C | 0.03
G53U A57C | 0.01
C56G A77G | 0.04
G53A A121U | 1.7
A59G A65G | 0.11
G53A U96C | 0
G53A C146U | 1.31
A57G G137A | 0.99
G58C | 0.03
G58A | 0.05
G58U | 0.05
A57G C116U | 0.71
G58A A136G | 0.05
G53A C103A | 1.43
A57G A107G | 1.01
G55C C146U | 0.25
G53A U143C | 1.59
G58A C145U | 0.04

Variant | self-cleavage
G58A U81G | 0.12
G54A U134G | 0.76
G53U A65U | 0.27
G54C U104C | 1.3
A57G A117U | 0.79
G54A U96C | 0.04
G54A U96A | 0.03
A57C A65G | 0
G54A U115G | 1.02
G54A U115C | 1.27
A57G C98G | 0.07
G55C A94C | 0
A57U G114A | 0.07
G55A A64G | 0
G58U G80A | 0
G55A U108C | 0.52
G53U U81C | 2
G58A A117U | 0.05
G58A A117C | 0.1
U52G U104A | 1
G53A G74A | 1.04
A57U C71U | 0.02
G53A A142G | 1.3
A57U U100A | 0.03

Variant | self-cleavage
G54A G125U | 0.69
G58A U132C | 0.05
G58U G137U | 0.03
G55A G114U | 0.22
A57C U87C | 0
A57U G60C | 0.05
A57U G60A | 0.04
C56U C128U | 0.22
G55A C110U | 0.53
G54A U81A | 0.78
A57G C71G | 0.07
G58A U115C | 0.06
G58A U115A | 0.1
A57G A136G | 1.33
G53A U91C | 0.53
G55A G125C | 0.15
G55C U73A | 0.07
U52G U119A | 0.93
C56U C76U | 0.34
C56U U134C | 0.23
A57U U112C | 0.01
G53A U132C | 1.29
G54A A138G | 0.84
A57G G60A | 0.06

Variant | self-cleavage
A57G C128G | 0.55
G55U U96C | 0.08
G53A A124U | 1.28
G53C U115C | 1.96
G55C A142G | 0.06
A57G G126U | 0.65
A57C A141G | 0.11
G54A C116A | 0.47
A57G U143C | 0.81
A57G U143A | 0.84
A57G A142U | 0.38
A57G A142G | 0.84
G54C | 0.86
G54U | 0.67
G54A | 0.61
G55A U109C | 0.1
A57C U130C | 0.18
A57G A78U | 1.62
G54C A138G | 1.35
A57G G125A | 0.52
A57G G125U | 0.92
G54U U115A | 0.74
G53A A136U | 1.47
A57G G89A | 0.04

Variant | self-cleavage
A57G G82A | 1.75
A57G G82C | 1.36
A57G A124C | 0.91
A57U U104C | 0.15
A57C U102A | 0.06
A57G U102C | 0.43
A57U C145U | 0.08
A57C C61U | 0.05
A57G A138C | 1.13
C56U A77U | 0.11
G54A C145U | 0.54
G55A U85C | 0.06
G58U U130C | 0.05
G58A U143C | 0
A57G C68A | 0.06
G54A U112A | 0.83
G55U U134G | 0.15
C56U A69U | 0.02
C56U A69G | 0.02
G58A U102C | 0.04
A57U U143A | 0.11
U52G U132C | 1.42
G54A U130C | 0.9
A57G G74A | 0.46

Variant | self-cleavage
G58A U87C | 0
G55A A65G | 0.03
G55A A92G | 0.03
A59C U87A | 0.04
G53U A64G | 0.16
C56A | 0.05
C56G | 0.07
C56U | 0.11
G55A A79G | 0.4
G53A A79G | 0.71
A57U G139U | 0.11
G55A U87C | 0.04
A57U G126U | 0.1
C56U A57G | 0.04
A57C A129G | 0.14
G53A A138G | 1.72
C56U A59G | 0.05
C56U U130C | 0
G55C A129U | 0.09
A57C U143A | 0.22
A57G A94G | 0.16
G53U A94G | 0.2
A57G U96A | 0.05
A57G U96C | 1.37

Variant | self-cleavage
G53C U96C | 0.09
G53U U87A | 0.05
C56U A107G | 0.1
A59C C131A | 1.15
G58U G114A | 0.03
A57G A65C | 0.05
G53U U130C | 1.5
A57C U96C | 0.08
A57C U96A | 0.01
C56G A79G | 0.1
G53A U134A | 1.23
C56U A142G | 0.11
G54A U108C | 0.89
A57U G135U | 0.08
A57G A79C | 0.8
A57G A79G | 1.32
A57U G75A | 0.03
A57U U81A | 0.05
A57U U81C | 0.12
A57U U132C | 0.14
A57C A94G | 0.25
A59C A77U | 0.6
